Assay results taken from US20250282874A1 (SUZHOU TRANSCENTA THERAPEUTICS, published 2025).
Changes are numbered by the printed parent chain. Names may count otherwise. Where two headings read alike, the source gives them in different places. Blank lines part the entries; values can stand above or below the binder they belong to.

Experiments:
human PD-L1-His [1] = target: T1, human PD-L1-His (human, UniProt Q9NZQ7 19-238, limits assumed); experiment: ELISA, human PD-L1 coated, OD450
T1 construct: not shown: His tag

human PD-L1-His [2] = target: T1, human PD-L1-His; experiment: ELISA, human PD-L1-His coated, anti-human IgG-HRP, OD450
[3] = target: T2, Human IL-1β protein (Sino Biological, Cat #10139) (human, UniProt P01584 117-269); experiment: ELISA, hIL-1β protein coated, anti-human Fc-HRP, OD450
T2 construct: also called hIL-1β

[4] = target: T2, Human IL-1β protein (Sino Biological, …); experiment: cell-based or functional assay
[5] = target: T3, hPD-L1 (Acro Biosystems, PD1-H5229) (human, UniProt Q9NZQ7 19-238); experiment: ELISA, hPD-L1 coated, anti-human Fc-HRP, OD450
T3 construct: also called human PD-L1; hPD-L1 protein

[6] = target: T2, Human IL-1β protein (Sino Biological, …); experiment: cell-based or functional assay; remark: listed apart in the source
[7] = target: T4, human PD-L1 expressed on cells (human, UniProt Q9NZQ7 19-290); experiment: cell-based or functional assay
[8] = target: T4, human PD-L1 expressed on cells; experiment: flow cytometry on 293T-PD-L1-CD3L cells, Mean FITC-A as printed
human PD-L1-Fc [9] = target: T5, human PD-L1-Fc (human, UniProt Q9NZQ7 19-239); experiment: BLI; PD-L1-Fc loaded on the sensor, scFv in solution
T5 construct: also called hPD-L1-Fc; human PD-L1-Fc (Sino Biological, 70110-D02H); not shown: Fc part

human PD-L1-Fc [10] = target: T5, human PD-L1-Fc; experiment: BLI; against L-CDR1-WT
human PD-L1-Fc [11] = target: T5, human PD-L1-Fc; experiment: BLI; PD-L1-Fc loaded on the sensor, scFv in solution; remark: listed apart in the source
human PD-L1-Fc [12] = target: T5, human PD-L1-Fc; experiment: BLI; against L-CDR2-WT
[13] = target: T3, hPD-L1 (Acro Biosystems, PD1-H5229); experiment: ELISA on human PD-L1, OD450
human CD47 = human CD47 (human, UniProt Q08722 19-139, limits assumed); experiment: ELISA on human CD47, OD450
human CD47, sequence (Q08722 19-139 limits assumed): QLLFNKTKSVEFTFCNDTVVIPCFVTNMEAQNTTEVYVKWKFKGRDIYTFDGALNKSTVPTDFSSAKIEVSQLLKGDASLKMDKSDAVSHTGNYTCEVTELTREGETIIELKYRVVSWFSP

B5: 4B6 scFv variant L-CDR1-2 (scFv)
scFv: DIQMTQSPSSLSASVGDRVTITCKASQNVPAAVAWYQQKPGKAPKLLIYSASNRYTGVPSRFSGSGSGTDFTLTISSLQPEDIATYYCQQYSNYPTFGQGTKLEIKGGGGSGGGGSGGGGSQVQLVQSGAEVKKPGASVKVSCKASGYVFTDYYMNWVRQAPGQSLEWMGDINPNNAGTSYNHKFKGRVTVTVDKSISTAYMELSRLRSDDTAVYYCVKWGDGPFAYWGQGTLVTVSS
notes: also called 4B6-L-CDR1-2
- Kd (human PD-L1-Fc [9]): 5.68 nM
- kon (human PD-L1-Fc [9]): 271000 M⁻¹ s⁻¹
- Fold increase (human PD-L1-Fc [10]): 4.96 fold

B6: 4B6 scFv variant L-CDR1-3 (scFv)
scFv: B5 scFv with P30K, A31G
notes: also called 4B6-L-CDR1-3
- Kd (human PD-L1-Fc [9]): 2.78 nM
- kon (human PD-L1-Fc [9]): 91100 M⁻¹ s⁻¹
- Fold increase (human PD-L1-Fc [10]): 10.1 fold

B7: 4B6 scFv variant L-CDR2-1 (scFv)
scFv: B5 scFv with P30G, A51N, N53H
notes: also called 4B6-L-CDR2-1
- Kd (human PD-L1-Fc [11]): 8.06 nM
- kon (human PD-L1-Fc [11]): 46800 M⁻¹ s⁻¹
- Fold increase (human PD-L1-Fc [12]): 3.42 fold

B8: 4B6 scFv variant L-CDR2-2 (scFv)
scFv: B5 scFv with P30G, A51R, N53V
notes: also called 4B6-L-CDR2-2
- Kd (human PD-L1-Fc [11]): 3.34 nM
- kon (human PD-L1-Fc [11]): 162000 M⁻¹ s⁻¹
- Fold increase (human PD-L1-Fc [12]): 8.26 fold

B9: 4B6 scFv variant L-CDR2-3 (scFv)
scFv: B5 scFv with P30G, A51V, N53D
notes: also called 4B6-L-CDR2-3
- Kd (human PD-L1-Fc [11]): 4.37 nM
- kon (human PD-L1-Fc [11]): 124000 M⁻¹ s⁻¹
- Fold increase (human PD-L1-Fc [12]): 6.32 fold

The next lines start with the values.

- EC50 (human PD-L1-His [1]): 0.347 nM
- EC50 (human PD-L1-His [2]): 1.04 nM
B1: Hu4B6_HdLa (antibody, human IgG1, V domains shown)
VH: QVQLVQSGAEVKKPGASVKVSCKASGYVFTDYYMNWVRQAPGQSLEWMGDINPNNGGTSYNHKFKGRVTVTVDKSISTAYMELSRLRSDDTAVYYCVKWGDGPFAYWGQGTLVTVSS
VL: DIQMTQSPSSLSASVGDRVTITCKASQNVGAAVAWYQQKPGKAPKLLIYSASNRYTGVPSRFSGSGSGTDFTLTISSLQPEDIATYYCQQYSNYPTFGQGTKLEIK

- EC50 (human PD-L1-His [1]): 0.407 nM
B2: Hu4B6_HgLa (antibody, V domains shown)
VH: B1 VH with G56A
VL: B1 VL
notes: Hu4B6_Hd with G55A, paired with Hu4B6_La

- EC50 [3]: 0.0113 nM
- IC50, SEAP at OD620, HEK293-CD40L reporter cells stimulated with human IL-1β [4]: 0.294 nM
B3: ACZ885 (antibody, V domains shown)
VH: QVQLVESGGGVVQPGRSLRLSCAASGFTFSVYGMNWVRQAPGKGLEWVAIIWYDGDNQYYADSVKGRFTISRDNSKNTLYLQMNGLRAEDTAVYYCARDLRTGPFDYWGQGTLVTVSS
VL: EIVLTQSPDFQSVTPKEKVTITCRASQSIGSSLHWYQQKPDQSPKLLIKYASQSFSGVPSRFSGSGSGTDFTLTINSLEAEDAAAYYCHQSSSLPFTFGPGTKVDIK
notes: Monoclonal anti-IL-1β antibody; also called Canakinumab

- EC50 [3]: 0.0155 nM
- EC50 [5]: 0.0349 nM
- IC50, IL-6 release (pg/mL) of HDF cells stimulated with human IL-1β [6]: 0.0141 nM
- IC50 (so in the source), luminescence (axis printed OD450), 293T-PD-L1-CD3L cells with Jurkat-NFAT-Luc-PD1 cells [7]: 1.49 nM
- EC50 [8]: 1.4 nM
B4: IgG-scFv-XOMA052-AM4B6 (bispecific antibody)
heavy: QVQLQESGPGLVKPSQTLSLTCSFSGFSLSTSGMGVGWIRQPSGKGLEWLAHIWWDGDESYNPSLKSRLTISKDTSKNQVSLKITSVTAADTAVYFCARNRYDPPWFVDWGQGTLVTVSSASTKGPSVFPLAPSSKSTSGGTAALGCLVKDYFPEPVTVSWNSGALTSGVHTFPAVLQSSGLYSLSSVVTVPSSSLGTQTYICNVNHKPSNTKVDKKVEPKSCDKTHTCPPCPAPEFEGGPSVFLFPPKPKDTLMISRTPEVTCVVVDVSHEDPEVKFNWYVDGVEVHNAKTKPREEQYNSTYRVVSVLTVLHQDWLNGKEYKCKVSNKALPASIEKTISKAKGQPREPQVYTLPPSRDELTKNQVSLTCLVKGFYPSDIAVEWESNGQPENNYKTTPPVLDSDGSFFLYSKLTVDKSRWQQGNVFSCSVMHEALHNHYTQKSLSLSPGAGGGGSGGGGSGGGGSGGGGSQVQLVQSGAEVKKPGASVKVSCKASGYVFTDYYMNWVRQAPGQSLEWMGDINPNNAETLYNHKFKGRVTVTVDKSISTAYMELSRLRSDDTAVYYCVKWGDGPFAYWGQGTLVTVSSGGGGSGGGGSGGGGSGGGGSDIQMTQSPSSLSASVGDRVTITCKASQNVGAAVAWYQQKPGKAPKLLIYSVSDRYTGVPSRFSGSGSGTDFTLTISSLQPEDIATYYCQQYSNYPTFGQGTKLTVL
light: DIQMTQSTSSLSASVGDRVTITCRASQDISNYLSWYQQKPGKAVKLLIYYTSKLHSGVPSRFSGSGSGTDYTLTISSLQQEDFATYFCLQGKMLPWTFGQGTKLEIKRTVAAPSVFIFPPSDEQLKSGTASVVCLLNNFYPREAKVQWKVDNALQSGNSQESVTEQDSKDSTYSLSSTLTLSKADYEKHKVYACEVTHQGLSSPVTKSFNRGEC
notes: Anti-IL-1β IgG (Gevokizumab) with the AM4B6 scFv on the C-terminus of the heavy chain

- EC50 [3]: 0.0182 nM
- EC50 [5]: 0.0363 nM
- IC50, SEAP at OD620, HEK293-CD40L reporter cells stimulated with human IL-1β [4]: 0.346 nM
- IC50 (so in the source), luminescence (axis printed OD450), 293T-PD-L1-CD3L cells with Jurkat-NFAT-Luc-PD1 cells [7]: ~1.29 nM
- EC50 [8]: 1.51 nM
B10: IgG-scFv-ACZ885-AM4B6 (bispecific antibody)
heavy: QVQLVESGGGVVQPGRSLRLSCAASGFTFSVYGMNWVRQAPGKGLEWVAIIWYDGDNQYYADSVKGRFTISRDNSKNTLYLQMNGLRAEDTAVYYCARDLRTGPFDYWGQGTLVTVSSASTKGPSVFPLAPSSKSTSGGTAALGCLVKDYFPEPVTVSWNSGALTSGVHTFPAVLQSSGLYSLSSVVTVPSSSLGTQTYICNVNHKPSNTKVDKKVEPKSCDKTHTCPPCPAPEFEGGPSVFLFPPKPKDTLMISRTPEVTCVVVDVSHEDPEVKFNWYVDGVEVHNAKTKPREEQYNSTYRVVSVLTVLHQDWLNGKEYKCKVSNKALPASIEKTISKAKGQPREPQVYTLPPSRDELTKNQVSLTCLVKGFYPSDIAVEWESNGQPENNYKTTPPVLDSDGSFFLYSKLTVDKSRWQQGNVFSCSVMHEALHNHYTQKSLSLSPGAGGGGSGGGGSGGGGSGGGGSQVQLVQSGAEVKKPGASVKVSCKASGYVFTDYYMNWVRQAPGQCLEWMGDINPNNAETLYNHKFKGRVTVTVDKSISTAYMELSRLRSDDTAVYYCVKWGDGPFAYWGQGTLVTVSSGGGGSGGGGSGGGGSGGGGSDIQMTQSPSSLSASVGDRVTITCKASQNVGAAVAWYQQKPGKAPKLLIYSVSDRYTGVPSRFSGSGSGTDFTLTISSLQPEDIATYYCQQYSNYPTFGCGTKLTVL
light: EIVLTQSPDFQSVTPKEKVTITCRASQSIGSSLHWYQQKPDQSPKLLIKYASQSFSGVPSRFSGSGSGTDFTLTINSLEAEDAAAYYCHQSSSLPFTFGPGTKVDIKRTVAAPSVFIFPPSDEQLKSGTASVVCLLNNFYPREAKVQWKVDNALQSGNSQESVTEQDSKDSTYSLSSTLTLSKADYEKHKVYACEVTHQGLSSPVTKSFNRGEC
notes: Anti-IL-1β IgG (Canakinumab) with the AM4B6 scFv on the C-terminus of the heavy chain

- EC50 [13]: 0.154 nM
- EC50 (human CD47): 0.24 nM
B11: AM4B6-hIgG1-SIRPα (other)
heavy: QVQLVQSGAEVKKPGASVKVSCKASGYVFTDYYMNWVRQAPGQSLEWMGDINPNNAETLYNHKFKGRVTVTVDKSISTAYMELSRLRSDDTAVYYCVKWGDGPFAYWGQGTLVTVSSASTKGPSVFPLAPSSKSTSGGTAALGCLVKDYFPEPVTVSWNSGALTSGVHTFPAVLQSSGLYSLSSVVTVPSSSLGTQTYICNVNHKPSNTKVDKKVEPKSCDKTHTCPPCPAPEFEGGPSVFLFPPKPKDTLMISRTPEVTCVVVDVSHEDPEVKFNWYVDGVEVHNAKTKPREEQYNSTYRVVSVLTVLHQDWLNGKEYKCKVSNKALPASIEKTISKAKGQPREPQVYTLPPSRDELTKNQVSLTCLVKGFYPSDIAVEWESNGQPENNYKTTPPVLDSDGSFFLYSKLTVDKSRWQQGNVFSCSVMHEALHNHYTQKSLSLSPGAGGGGSGGGGSGGGGSGGGGSGEEELQIIQPDKSVLVAAGETATLRCTITSLFPVGPIQWFRGAGPGRVLIYNQRQGPFPRVTTVSDTTKRNNMDFSIRIGNITPADAGTYYCIKFRKGSPDDVEFKSGAGTELSVRAKPS
light: DIQMTQSPSSLSASVGDRVTITCKASQNVGAAVAWYQQKPGKAPKLLIYSVSDRYTGVPSRFSGSGSGTDFTLTISSLQPEDIATYYCQQYSNYPTFGQGTKLEIKRTVAAPSVFIFPPSDEQLKSGTASVVCLLNNFYPREAKVQWKVDNALQSGNSQESVTEQDSKDSTYSLSSTLTLSKADYEKHKVYACEVTHQGLSSPVTKSFNRGEC
notes: Symmetrical bifunctional antibody against PD-L1 and CD47 (SIRPα_CV1 on the heavy chain)

- EC50 [13]: 0.0853 nM
- EC50 (human CD47): 0.167 nM
B12: AM4B6-hIgG1-SIRPα (KIH) (other)
heavy 1: B11 heavy with S354C, T366W
heavy 2: QVQLVQSGAEVKKPGASVKVSCKASGYVFTDYYMNWVRQAPGQSLEWMGDINPNNAETLYNHKFKGRVTVTVDKSISTAYMELSRLRSDDTAVYYCVKWGDGPFAYWGQGTLVTVSSASTKGPSVFPLAPSSKSTSGGTAALGCLVKDYFPEPVTVSWNSGALTSGVHTFPAVLQSSGLYSLSSVVTVPSSSLGTQTYICNVNHKPSNTKVDKKVEPKSCDKTHTCPPCPAPEFEGGPSVFLFPPKPKDTLMISRTPEVTCVVVDVSHEDPEVKFNWYVDGVEVHNAKTKPREEQYNSTYRVVSVLTVLHQDWLNGKEYKCKVSNKALPASIEKTISKAKGQPREPQVCTLPPSRDELTKNQVSLSCAVKGFYPSDIAVEWESNGQPENNYKTTPPVLDSDGSFFLVSKLTVDKSRWQQGNVFSCSVMHEALHNHYTQKSLSLSPGK
light: B11 light
notes: Asymmetric (knob into hole) bifunctional antibody
